Reference: PMC7660914 (Microbiology, 2020)

B1: H6 flagella (polymeric FliC flagellin) of E. coli O127:H6 (natural protein)
chain: MAQVINTNSLSLITQNNINKNQSALSSSIERLSSGLRINSAKDDAAGQAIANRFTSNIKGLTQAARNANDGISVAQTTEGALSEINNNLQRIRELTVQASTGTNSDSDLDSIQDEIKSRLDEIDRVSGQTQFNGVNVLAKDGSMKIQVGANDGQTITIDLKKIDSDTLGLNGFNVNGKGETANTAATLKDMSGFTAAAAPGGTVGVTQYTDKSAVASSVDILNAVAGADGNKVTTSADVGFGTPAAAVTYTYNKDTNSYSAASDDISSANLAAFLNPQARDTTKATVTIGGKDQDVNIDKSGNLTAADDGAVLYMDATGNLTKNNAGGDTQATLAKVATATGAKAATIQTDKGTFTSDGTAFDGASMSIDANTFANAVKNDTYTATVGAKTYSVTTGSAAADTAYMSNGVLSDTPPTYYAQADGSITTTEDAAAGKLVYKGSDGKLTTDTTSKAESTSDPLAALDDAISQIDKFRSSLGAVQNRLDSAVTNLNNTTTNLSEAQSRIQDADYATEVSNMSKAQIIQQAGNSVLAKANQVPQQVLSLLQG

Experiments:
[1] = molecular target: the molecule itself; assay: SEC
[2] = molecular target: B1; assay: ELISA; settings: both partners purified

B1: binds [1].

B2: recombinant human galectin-4 (natural protein, UniProt P56470 1-323, looked up)
chain: MAYVPAPGYQPTYNPTLPYYQPIPGGLNVGMSVYIQGVASEHMKRFFVNFVVGQDPGSDVAFHFNPRFDGWDKVVFNTLQGGKWGSEERKRSMPFKKGAAFELVFIVLAEHYKVVVNGNPFYEYGHRLPLQMVTHLQVDGDLQLQSINFIGGQPLRPQGPPMMPPYPGPGHCHQQLNSLPTMEGPPTFNPPVPYFGRLQGGLTARRTIIIKGYVPPTGKSFAINFKVGSSGDIALHINPRMGNGTVVRNSLLNGSWGSEEKKITHNPFGPGQFFDLSIRCGLDRFKVYANGQHLFDFAHRLSAFQRVDTLEIQGDVTLSYVQI
notes: also called GAL4
B2: binds [2].
